The source of these data is patent publication US20230295324A1.

Assay [1] concerns the target human OX40 on cells (CHO-K1/hu OX40) (human) (UniProt P43489). The assay is described as follows: cell-based or functional assay.
Assay [2] has the same target. The assay is described as follows: FACS, CHO-K1/hu OX40 cells.

Sequence of human OX40 on cells (CHO-K1/hu OX40) (human) (P43489 29-277): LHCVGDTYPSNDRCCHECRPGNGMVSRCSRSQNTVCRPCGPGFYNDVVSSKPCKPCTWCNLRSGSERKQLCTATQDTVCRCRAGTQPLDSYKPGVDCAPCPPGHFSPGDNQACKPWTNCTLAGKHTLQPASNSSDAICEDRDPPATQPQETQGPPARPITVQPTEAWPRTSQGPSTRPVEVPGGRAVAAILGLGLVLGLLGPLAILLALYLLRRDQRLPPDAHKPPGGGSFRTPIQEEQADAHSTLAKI

Substance hIgG1 (antibody) returned a Maximum fluorescence signal value, HEK293/OX40/NF-kb luciferase reporter in assay [1] of 2530 luminescence. Moreover, in assay [2], the EC50 was determined as 71 nM and the Maximum MFI stood at 6900 MFI.
